The record followed here is the supplement of paper PMC12042874.

± gives the uncertainty stated by the source.

The data set is described as follows: amyloid nucleation score (Sup35N fusion, yeast selection) (log enrichment); library NNK1; higher = more nucleation; inactive = no reads after selection. The procedure, abridged:
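The nucleation score is a DiMSum log enrichment of output over input reads, centred on the mode score of non-aggregating sequences. Sequences under 100 input reads were excluded, and reads came from Illumina sequencing of plasmid inserts. Psi-negative yeast expressing Sup35N fused to peptides of 20 random codons were induced with 100 μM copper sulfate for 24 hours and grown 7 days at 30°C on medium lacking adenine and uracil. Random libraries had three technical output replicates.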
Turning to MARVC, the amyloid nucleation score is -1.56 ± 2.4.
With FFAHNRTMSRRNQAFGF the figure was 0.86 ± 1.1; with VRNVISNKYCRAGYLTKYLL, -0.16 ± 0.22.
In turn, LNLLYASWYYSFGVR gave an amyloid nucleation score of -0.194 ± 0.24.
In turn, NVRYFLWGNAETIYL registered an amyloid nucleation score of 0.769 ± 0.29.
LVISSRREKR had an amyloid nucleation score of 0.009 ± 0.57.
Regarding SKYVYSF, the amyloid nucleation score was found to be 1.2 ± 0.13.
For the substance KVLELYRILYRREHNFWVEV, the amyloid nucleation score is -0.317 ± 1.6.
The result for VMILNLIVDTRLRVSRHLHV reads 2.88 ± 0.28; that for LFRIIWGCS, “inactive”; that for RFYMCRLEGVPFES, 0.58 ± 0.79.
As to NRPGEINKWSTLIDGVTRFS, the amyloid nucleation score is 0.335 ± 0.41.
MFTYDGRVEWVLA yielded an amyloid nucleation score of -0.133 ± 0.45.
Take TFYNFAMSFKEVCCCMSWRG: the amyloid nucleation score was 7.143 ± 0.058.
KSTRWQIRSDALDVSERCFS: the amyloid nucleation score was 1 ± 0.76.
As for WSRCSFFGHRYIKSSLLIWG, the amyloid nucleation score is -0.139 ± 0.44.
For the substance VSNNYRDV, the amyloid nucleation score turned out to be 0.807 ± 0.72.
Regarding FRIYLYLTCGLCSIIHYFVP, the amyloid nucleation score turned out to be 0.818 ± 0.25.
With QIINKFTSDIVLTD the figure was 0.456 ± 0.38; with ISGGLTGKWVFVLGDWWVMF, -0.206 ± 0.74.
In the case of LVLSVFWRNVVWAINLAVVS, the amyloid nucleation score is -0.521 ± 0.31.
With VEMGIIFR the figure was -0.339 ± 0.24.
On to RTILISAGAKCVNLMMLDSV, for which the amyloid nucleation score came out at 1.6 ± 0.29.
The result for STNWFNYSNGNTVWDIGDYL reads 0.4 ± 0.32.
The result for SAHSDPQMRKNSLTYGNDLI reads -0.116 ± 0.42; that for NIHGDGWSYVLNAIGSELD, 0.154 ± 0.43; that for ASIKTRTSFRVKVWYWVRNL, -0.598 ± 1.7.
The result for FSRSTQVSER reads 1.38 ± 0.61; that for ISSKLLFSESSPSMSIQTHW, 0.765 ± 0.64.
In the case of RNRNCFSRYCRLIV, the amyloid nucleation score was -1.45 ± 0.56.
In turn, QFEDLHQLYSMCALPDSTKH came in with an amyloid nucleation score of -0.366 ± 0.93.
ISGTRLVLGLDDSR registered an amyloid nucleation score of 0.069 ± 0.37.
With TWYLMMENVS the figure was 4.69 ± 0.056; with FTSLNVRKLRGACRTTSSHG, -0.077 ± 0.61; with ENCFSCNEYCERYSPALCGQ, “inactive”.
Substance MLHYSARGFRRHK had an amyloid nucleation score of 0.326 ± 1.2.
With QSLDE the figure was -0.44 ± 0.28; with DDVMSKVPCVTTYSVVLLMR, 0.83 ± 0.78; with EFELRASNLPFNVFPIGFSN, 1.07 ± 0.67.
As to YFYDILGCDWKALSGRLIDT, the amyloid nucleation score is -0.603 ± 0.25.
With QSTLGGSKHAWLIENGGFGF the figure was -0.685 ± 1.1; with QASSGIDVNHFYAVNLTSML, 0.487 ± 0.97.
The result for NSLCYVVWVVVMTVNYYHHW reads 0.557 ± 0.5; that for HMWYFRYGHEWSRTYNKCIK, -0.02 ± 0.72.
GAVCLGQIMCSRVPRDVNVK: the amyloid nucleation score is -0.547 ± 0.49.
Consider SYLMY, for which the amyloid nucleation score was -0.533 ± 0.9.
As for MDPIPREAQVKVLSSHTTIG, the amyloid nucleation score was 0.606 ± 0.53.
As to MLRMLAVQCFSSCIARLD, the amyloid nucleation score came out at 2.05 ± 0.3.
IIYNAKE displayed an amyloid nucleation score of 0.367 ± 0.36.
With YHGRRVPRDVTNQRTMAQCD the figure was 3.66 ± 0.087.
With ARIEFSGWFHPQLDLVFFVQ the figure was 1.97 ± 0.15; with AEVTDMGDLFSERMLSVVQI, -0.499 ± 1.9; with NRLVMLLLTLSNGSCEKVRD, 2.95 ± 0.094.
EVGNCFLESPGMVYVVGRDR: the amyloid nucleation score turned out to be 0.51 ± 0.52.
In turn, SNEYYPSLHYRVSVGKGLGR showed an amyloid nucleation score of -0.154 ± 1.2.
Take VGISMHFRSRENFQSN: the amyloid nucleation score result is “inactive”.
LHRIVTVNIP displayed an amyloid nucleation score of 1.23 ± 0.8.
In turn, VSNERSWMRCFFMGSRIAHG registered an amyloid nucleation score of -0.735 ± 0.4.
For the substance AIVTSGNRE, the amyloid nucleation score was -0.015 ± 0.51.
DKRIARLNPRIGTSVSWDVS had an amyloid nucleation score of 0.89 ± 0.5.
Regarding DLTCWLLFFNLLYSI, the amyloid nucleation score came to 0.492 ± 0.33.
AILNRLLSLPSFPVPSSDSQ registered an amyloid nucleation score of 0.466 ± 1.4.
LKVPCL gave an amyloid nucleation score of -0.067 ± 0.59.
Substance NVGVRLMCVSWSVHDQLA gave an amyloid nucleation score of 1.66 ± 0.35.
FFTIQMGYMALGMW came in with an amyloid nucleation score of 1.16 ± 0.23.
On to LVTDPWISTLSSFHLWGGFM, for which the amyloid nucleation score stood at 0.887 ± 0.7.
With TLIIGYRA the figure was 0.964 ± 0.51; with FAWSRAACFSIPVRISVSLG, 1.14 ± 0.72.
CESCAACMRHYRWLGFQSYI yielded an amyloid nucleation score of -1.5 ± 2.4.
SFFLFRENFEMSNIRFRYVN returned an amyloid nucleation score of 0.995 ± 0.68.
As to SEYETG, the amyloid nucleation score stood at 0.101 ± 0.34.
ACSPSLVL returned an amyloid nucleation score of 1.52 ± 0.84.
The substance YGEPYV had an amyloid nucleation score of 0.829 ± 0.66.
The substance DLRKAGGWHRVIC returned an amyloid nucleation score of 0.111 ± 0.56.
As for VSEHSFWIWGRVPQLTQIIA, the amyloid nucleation score entry was “inactive”.
The result for QRVSIRFSVPRGL reads 0.312 ± 0.31; that for YALFADACSKGALDKVFSWV, 0.745 ± 1.2; that for SCGWDLVCGMMAVHSSGIVL, 0.975 ± 0.42.
Substance YADNSSTLMSDILFTIYRIG displayed an amyloid nucleation score of 1.06 ± 0.095.
Consider LYFQAFHYQQWCIWFYFYIL, for which the amyloid nucleation score is 1.42 ± 0.49.
With CWGLRLLSFVRRLV, the amyloid nucleation score stood at 0.749 ± 1.
Substance AYINLTPHGPRVCRFNWLAS gave an amyloid nucleation score of -0.094 ± 0.7.
Take CSLNLNCVS: the amyloid nucleation score was 3.76 ± 0.13.
On to KHCDYHRWVEITSKRLFIGG, for which the amyloid nucleation score amounted to 0.134 ± 0.3.
Substance LRSEEVFTHMRAGVAKSFWD came in with an amyloid nucleation score of 0.461 ± 0.72.
The result for VLVGCLASQRVISENKGCKC reads 0.722 ± 0.81.
LGHGLDRMKLRTECNCTVVD had an amyloid nucleation score of -0.503 ± 0.3.
In turn, INYFQDD registered an amyloid nucleation score of -0.727 ± 1.4.
With GEKCGSVPGHQLGTDILSRA, the amyloid nucleation score was found to be 0.819 ± 0.67.
CFIDQYVVTNCSLLTYFM returned an amyloid nucleation score of 0.145 ± 0.88.
With GYKGQCIIYSTVDSRN the figure was 0.07 ± 0.35.
For GFNLSRTAMMICFGYFTA, the amyloid nucleation score amounted to 6.61 ± 0.073.
For the substance SAVGYISLLYNSWAKYTICN, the amyloid nucleation score is -0.562 ± 0.69.
Substance GKYKTFKNNITP displayed an amyloid nucleation score of -0.416 ± 1.2.
As to NRCVAGRWPNSFVVLGHTFN, the amyloid nucleation score is -0.211 ± 0.71.
With GYRCMHLWTRSPSFIRPVVS the figure was 0.67 ± 0.97; with SPMMVNVYATDDVDLPSWLM, -0.293 ± 0.47.
In the case of TGYRFLSIIIAAADSDCELS, the amyloid nucleation score is -0.706 ± 1.2.
The result for TSCPRYECNENTSVYGSLDT reads “inactive”.
The result for PEAPPLLIVSGFN reads 1.2 ± 0.79; that for VLFESIRWMSG, -0.142 ± 1.1; that for VLYTTLHGFYHNCWLWLRYS, -0.191 ± 0.42.
KIPKSVYVLTSIEGSAFNIK returned an amyloid nucleation score of -0.234 ± 1.6.
FKEER: the amyloid nucleation score amounted to 0.133 ± 1.4.
In turn, QSGPSAVY showed an amyloid nucleation score of 0.362 ± 0.64.
VLLTMWFNFFLLRNRGVVFS: the amyloid nucleation score worked out at 2.65 ± 0.08.
For FFCLSIHVYSG, the amyloid nucleation score stood at 0.46 ± 0.97.
For VKFMMRLDYYCPLSTVQTTA, the amyloid nucleation score is -0.644 ± 0.36.
For the substance KTSVL, the amyloid nucleation score is -0.616 ± 0.39.
Consider VAFWLLC, for which the amyloid nucleation score amounted to 0.219 ± 0.38.
TKLAY: the amyloid nucleation score turned out to be 0.445 ± 0.49.
INRFTICTFHWTGFALNALS gave an amyloid nucleation score of 2.26 ± 0.17.
The result for MISLHVL reads -0.109 ± 1.3; that for FEYCCFSYEIVLELARFRGF, -0.535 ± 1.7; that for MLNVEGNTLKSWIYGRHLVP, 0.097 ± 0.69.
With RCRAVELLEVRRLQMRSGHH, the amyloid nucleation score is -0.295 ± 0.34.
CMSSAALSRLHM gave an amyloid nucleation score of -0.605 ± 1.1.
With SRDRKVYLAYVYVYTRNVQT the figure was 0.683 ± 0.34; with RRSMGRGVLVKGRGSCREYV, 0.251 ± 0.81; with DWVPLKSHISWLSVTRVLIV, 0.636 ± 0.46.
In turn, ICDRAWRCFKTKSTQPVTVS showed an amyloid nucleation score of -0.19 ± 0.36.
Turning to QASIYCIIRE, the amyloid nucleation score was 0.68 ± 0.43.
Turning to YSVLNINLQFRSSLLGAFYP, the amyloid nucleation score turned out to be 3.75 ± 0.063.
Take FTLGVFSL: the amyloid nucleation score was found to be 0.017 ± 0.22.
The result for EISVWVEALFSLYFRNWISG reads 0.229 ± 0.84; that for FNVAAVVGWMKRLIDRSRNT, 1.3 ± 0.88; that for CLYARLSFASGYCGLAMRCV, 0.477 ± 0.93.
With DCTEH, the amyloid nucleation score entry was “inactive”.
As to PDDNMMVLGVSSADNLLIRL, the amyloid nucleation score turned out to be 0.579 ± 0.66.
Consider HFQKYKELVVSKHN, for which the amyloid nucleation score came out at 0.743 ± 1.1.
The result for WVSSAAGAAGPVIYWDVALY reads -0.612 ± 0.39.
As for SSYCNLVASIL, the amyloid nucleation score came to 0.649 ± 0.53.
Consider VPVYNMNFYAVLHILSFCLD, for which the amyloid nucleation score is 4.18 ± 0.057.
The substance MVLWW had an amyloid nucleation score of -0.231 ± 0.58.
GLFMGWYDRMP came in with an amyloid nucleation score of 0.265 ± 0.6.
On to GRFRARIHCSPQARVTFVAS, for which the amyloid nucleation score was -0.113 ± 0.71.
As to RASFIELVTEKRHPSHTPGK, the amyloid nucleation score is -0.473 ± 0.39.
In the case of MTTHVRWFNGLMSP, the amyloid nucleation score entry was “inactive”.
In the case of FLEFWPSVTVYSRCFLVFGR, the amyloid nucleation score was -1.06 ± 1.1.
The result for LLLLAIIDRYSIWK reads -0.183 ± 0.41; that for TCFVVLYTKMNVFECFDLQV, -0.109 ± 0.51.
